Source: the supplement of paper PMC7877785
± gives the uncertainty stated by the source.

Test: self-splicing fitness, log relative to wild type (ln ratio); higher = more splicing; Tetrahymena group I intron in knt gene, E. coli kanamycin selection, DiMSum; sequences stand for … in CUCUCU…GGAGGGAAAAGUUAUCAGGCAUGCACCUGGUAGCUAGUCUUUAAACCAAUAGAUUGCAUCGGUUUAAAAGGCAAGACCGUCAAAUUGCGGGAAAGGGGUCAACAGCCGUUCAGUACCAAGUCUCAGGGGAAACUUUGAGAUGGCCUUGCAAAGGGUAUGGUAAUAAGCUGACGGACAUGGUCCUAACCACGCAGCCAAGUCCUAAGUCAACAGAUCUUCUGUUGAUAUGGAUGCAGUUCACAGACUAAAUGUCGGUCGGGGAAGAUGUAUUCUUCUCAUAAGAUAUAGUCGGACCUCUCCUUAAUGGGAGCUAGCGGAUGAAGUGAUGCAACACUGGAGCCGCUGGGAACUAAUUUGUAUGCGAAAGUAUAUUGAUUAGUUUUGGAGUACUCGUGGUCG
Outline: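 Colonies from six replicate transformations of E. coli BL21(DE3) were pooled and amplicon-sequenced on an Illumina HiSeq 2500. The library placed an intron with all eight P1ex-region nucleotides randomised inside the knt kanamycin-resistance gene on pET-22b(+), and cells grew overnight at 37°C or 30°C on LB agar with or without 25 μg/mL kanamycin (plus 100 μg/mL carbenicillin, 50 μM IPTG, 0.2% rhamnose). Fitness is the DiMSum error-weighted combination of wild-type-normalised replicate fold changes, kanamycin versus none.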

CGGUAGCAAUAUUACGGGUU
self-splicing fitness (ln) (30 °C): -3.51 ± 0.21 | self-splicing fitness (ln) (37 °C): -3.67 ± 0.22

CGGUAGCAAUAUUACGUAAU
self-splicing fitness (ln) (30 °C): -3.97 ± 0.47

CGGUAGCAAUAUUACGUCGC
self-splicing fitness (ln) (30 °C): -3.35 ± 0.27 | self-splicing fitness (ln) (37 °C): -2.14 ± 0.22

CGGUAGCAAUAUUACGUCUG
self-splicing fitness (ln) (30 °C): -0.631 ± 0.086 | self-splicing fitness (ln) (37 °C): -0.338 ± 0.11

CGGUAGCAAUAUUACGUGAA
self-splicing fitness (ln) (30 °C): -2.67 ± 0.18 | self-splicing fitness (ln) (37 °C): -1.52 ± 0.19

CGGUAGCAAUAUUACGUUCU
self-splicing fitness (ln) (30 °C): -0.482 ± 0.087 | self-splicing fitness (ln) (37 °C): -0.439 ± 0.1

CGGUAGCAAUAUUACGUUGU
self-splicing fitness (ln) (30 °C): -4.62 ± 0.27 | self-splicing fitness (ln) (37 °C): -2.55 ± 0.15

CGGUAGCAAUAUUACGUUUC
self-splicing fitness (ln) (30 °C): -2.48 ± 0.32

CGUAAGCAAUAUUACGAAGU
self-splicing fitness (ln) (30 °C): -3.81 ± 0.18 | self-splicing fitness (ln) (37 °C): -2.51 ± 0.17

CGUAAGCAAUAUUACGACCA
self-splicing fitness (ln) (30 °C): -2.11 ± 0.35 | self-splicing fitness (ln) (37 °C): -0.83 ± 0.25

CGUAAGCAAUAUUACGACCU
self-splicing fitness (ln) (30 °C): -1.97 ± 0.17 | self-splicing fitness (ln) (37 °C): -0.549 ± 0.16

CGUAAGCAAUAUUACGACGA
self-splicing fitness (ln) (30 °C): -1.28 ± 0.21 | self-splicing fitness (ln) (37 °C): -1.69 ± 0.24

CGUAAGCAAUAUUACGAGUG
self-splicing fitness (ln) (30 °C): -2.51 ± 0.13 | self-splicing fitness (ln) (37 °C): -0.853 ± 0.1

CGUAAGCAAUAUUACGAUAG
self-splicing fitness (ln) (30 °C): -1.72 ± 0.093 | self-splicing fitness (ln) (37 °C): -0.661 ± 0.11

CGUAAGCAAUAUUACGAUCU
self-splicing fitness (ln) (30 °C): -2.36 ± 0.15 | self-splicing fitness (ln) (37 °C): -0.243 ± 0.11

CGUAAGCAAUAUUACGCAAA
self-splicing fitness (ln) (37 °C): -1.48 ± 0.34

CGUAAGCAAUAUUACGCCUA
self-splicing fitness (ln) (37 °C): -2.18 ± 0.27

CGUAAGCAAUAUUACGCCUG
self-splicing fitness (ln) (30 °C): -1.21 ± 0.11 | self-splicing fitness (ln) (37 °C): -0.643 ± 0.12

CGUAAGCAAUAUUACGCGCG
self-splicing fitness (ln) (30 °C): -2.79 ± 0.16 | self-splicing fitness (ln) (37 °C): -1.71 ± 0.23

CGUAAGCAAUAUUACGCGGA
self-splicing fitness (ln) (30 °C): -3.23 ± 0.19 | self-splicing fitness (ln) (37 °C): -1.84 ± 0.16

CGUAAGCAAUAUUACGCUUG
self-splicing fitness (ln) (30 °C): -3.54 ± 0.18 | self-splicing fitness (ln) (37 °C): -0.367 ± 0.14

CGUAAGCAAUAUUACGGACC
self-splicing fitness (ln) (30 °C): -0.744 ± 0.11 | self-splicing fitness (ln) (37 °C): -0.0128 ± 0.14

CGUAAGCAAUAUUACGGAGG
self-splicing fitness (ln) (30 °C): -2.16 ± 0.14 | self-splicing fitness (ln) (37 °C): -1.57 ± 0.17

CGUAAGCAAUAUUACGGCAA
self-splicing fitness (ln) (30 °C): -2.37 ± 0.25 | self-splicing fitness (ln) (37 °C): -1.68 ± 0.28

CGUAAGCAAUAUUACGGGAC
self-splicing fitness (ln) (30 °C): -2.9 ± 0.29 | self-splicing fitness (ln) (37 °C): -2.47 ± 0.41

CGUAAGCAAUAUUACGGGCG
self-splicing fitness (ln) (30 °C): -2.87 ± 0.22 | self-splicing fitness (ln) (37 °C): -1.12 ± 0.14

CGUAAGCAAUAUUACGGGGC
self-splicing fitness (ln) (30 °C): -3.43 ± 0.26 | self-splicing fitness (ln) (37 °C): -2.35 ± 0.23

CGUAAGCAAUAUUACGGGGU
self-splicing fitness (ln) (30 °C): -3.79 ± 0.18 | self-splicing fitness (ln) (37 °C): -3.36 ± 0.25

CGUAAGCAAUAUUACGGUUU
self-splicing fitness (ln) (30 °C): -3.8 ± 0.2 | self-splicing fitness (ln) (37 °C): -2.71 ± 0.17

CGUAAGCAAUAUUACGUACG
self-splicing fitness (ln) (30 °C): -3.57 ± 0.25 | self-splicing fitness (ln) (37 °C): -1.59 ± 0.23

CGUAAGCAAUAUUACGUAGA
self-splicing fitness (ln) (30 °C): -4.43 ± 0.3 | self-splicing fitness (ln) (37 °C): -3.25 ± 0.29

CGUAAGCAAUAUUACGUCCA
self-splicing fitness (ln) (30 °C): -2.61 ± 0.17 | self-splicing fitness (ln) (37 °C): -1.25 ± 0.17

CGUAAGCAAUAUUACGUCUU
self-splicing fitness (ln) (30 °C): -3.7 ± 0.22 | self-splicing fitness (ln) (37 °C): -1.37 ± 0.14

CGUAAGCAAUAUUACGUGAC
self-splicing fitness (ln) (30 °C): -3.04 ± 0.15 | self-splicing fitness (ln) (37 °C): -2.33 ± 0.18

CGUAAGCAAUAUUACGUUAG
self-splicing fitness (ln) (30 °C): -1.34 ± 0.072 | self-splicing fitness (ln) (37 °C): -0.964 ± 0.081

CGUAAGCAAUAUUACGUUUA
self-splicing fitness (ln) (30 °C): -1.69 ± 0.18 | self-splicing fitness (ln) (37 °C): -1.41 ± 0.18

CGUCAGCAAUAUUACGAACG
self-splicing fitness (ln) (30 °C): -2.55 ± 0.17 | self-splicing fitness (ln) (37 °C): -1.32 ± 0.18

CGUCAGCAAUAUUACGACAA
self-splicing fitness (ln) (30 °C): -0.159 ± 0.14 | self-splicing fitness (ln) (37 °C): 0.0303 ± 0.14

CGUCAGCAAUAUUACGACUG
self-splicing fitness (ln) (30 °C): -0.935 ± 0.11 | self-splicing fitness (ln) (37 °C): 0.699 ± 0.13

CGUCAGCAAUAUUACGAGAC
self-splicing fitness (ln) (30 °C): -2.95 ± 0.38 | self-splicing fitness (ln) (37 °C): -1.9 ± 0.32

CGUCAGCAAUAUUACGAUAG
self-splicing fitness (ln) (30 °C): -0.505 ± 0.054 | self-splicing fitness (ln) (37 °C): -0.11 ± 0.074

CGUCAGCAAUAUUACGAUCG
self-splicing fitness (ln) (30 °C): -1.74 ± 0.093 | self-splicing fitness (ln) (37 °C): -1.61 ± 0.11

CGUCAGCAAUAUUACGAUGU
self-splicing fitness (ln) (30 °C): -1.73 ± 0.11 | self-splicing fitness (ln) (37 °C): -1.53 ± 0.098

CGUCAGCAAUAUUACGCACC
self-splicing fitness (ln) (30 °C): -1.51 ± 0.1 | self-splicing fitness (ln) (37 °C): -0.192 ± 0.13

CGUCAGCAAUAUUACGCAUC
self-splicing fitness (ln) (30 °C): -2.47 ± 0.4 | self-splicing fitness (ln) (37 °C): -2.89 ± 0.4

CGUCAGCAAUAUUACGCGCC
self-splicing fitness (ln) (30 °C): -1.58 ± 0.16 | self-splicing fitness (ln) (37 °C): -0.529 ± 0.29

CGUCAGCAAUAUUACGCUCC
self-splicing fitness (ln) (30 °C): -1.3 ± 0.15 | self-splicing fitness (ln) (37 °C): -0.786 ± 0.22

CGUCAGCAAUAUUACGGAGU
self-splicing fitness (ln) (30 °C): -3.45 ± 0.17 | self-splicing fitness (ln) (37 °C): -2.55 ± 0.18
